Source: patent US20200308290A1

Experiments:
[1] = biological target: FcγRIIB on transfected CHO cells (UniProt P31994); assay: flow cytometry on FcγRIIB-transfected CHO cells, detection with anti-human kappa antibody, GFI against nM
[2] = biological target: FcγRIIIA on transfected CHO cells (UniProt P08637); assay: flow cytometry on FcγRIIIA-transfected CHO cells, detection with anti-human kappa antibody, GFI against nM
Chain of FcγRIIIA on transfected CHO cells (P08637 17-254 limits assumed): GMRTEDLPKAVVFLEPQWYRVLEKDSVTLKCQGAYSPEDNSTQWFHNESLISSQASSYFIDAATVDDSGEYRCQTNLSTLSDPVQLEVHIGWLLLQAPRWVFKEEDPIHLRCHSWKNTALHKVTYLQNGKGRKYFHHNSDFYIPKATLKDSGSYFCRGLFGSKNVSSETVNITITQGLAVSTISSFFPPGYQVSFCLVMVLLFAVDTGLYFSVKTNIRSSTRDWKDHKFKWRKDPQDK

Chain of FcγRIIB on transfected CHO cells (P31994 43-310 limits assumed): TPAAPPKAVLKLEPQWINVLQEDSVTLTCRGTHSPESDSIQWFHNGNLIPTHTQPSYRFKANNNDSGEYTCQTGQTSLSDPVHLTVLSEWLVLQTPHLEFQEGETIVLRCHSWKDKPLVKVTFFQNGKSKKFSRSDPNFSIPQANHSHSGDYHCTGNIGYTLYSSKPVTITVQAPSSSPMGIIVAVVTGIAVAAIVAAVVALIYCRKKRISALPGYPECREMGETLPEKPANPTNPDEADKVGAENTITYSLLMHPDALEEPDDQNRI

| EC50 (read off the curve) [1] [nM] | EC50 (read off the curve) [2] [nM] | Substance |
| --- | --- | --- |
| 2 |  | L328F (antibody) |
|  | 4 | N297A (antibody) |
| 0.7 | 1 | S267E (antibody) |
| 0.3 |  | SELF (antibody) |
